{"source": "patent US20210214432A1", "about": "(Y BIOLOGICS, published 2021)", "binders": {"B1": {"name": "human anti-DLK1 monoclonal antibody 18A5 (antibody, V domains shown)", "VH": "QVQLVQSGGAVVQPGHSLRLSCEASGFKFKDYGMHWVRQAPGKGLEWLAVISHDGRNKNYADSVKGRLTISRDNSKNTLSFQMNSLRAEDTAVYYCVRDWSYAFDIWGQGTLVTVSS", "VL": "DIQMTQSPSFLSASVGDRVNITCRASQDISRRLAWYQQKPGKAPKLLIYGAASLQSAVASRFSGSGSGTEFTLTISSLQPEDFANYYCQQIYTTPLTFGGGTKVEIK", "notes": "Converted from scFv to IgG; also called DLK1-18A5"}, "B2": {"name": "human anti-DLK1 monoclonal antibody variant 18A5_LS_1A10 (antibody, V domains shown)", "VH": "B1 VH", "VL": "DIQMTQSPSSLSASLGDRVTITCRASQGISSALAWYQQKPGKAPKLLIYAASSLQSGVPSRFSGSGSGTDFTLTINSLQPEDFATYYCQQSYTTPLTFGGGTKVEIK"}, "B3": {"name": "human anti-DLK1 monoclonal antibody variant 18A5_AM_1A12 (antibody, V domains shown)", "VH": "B1 VH with A10G, H16G, E23A", "VL": "DIQMTQSPSFLSASVGDRVTITCRASHDISSSLAWYQQKSGKAPKLLIYSASNLKSGVPSRFSGSGSGTDFSLTISSLQPEDFATYYCQQSYTTVLTFGGGTKLEIK"}, "B4": {"name": "human anti-DLK1 monoclonal antibody 17B11 (antibody, V domains shown)", "VH": "QVQLVESGGTLVQPGGSLRLSCAASGFTFSSHAMSWVRQTPGKGLEWVSSITKSGSGTYSADSVKGRFTISRDNSKNTLYLQMNSLRAEDTAVYYCTREGLGYYYGMDVWGQGTTVTVSS", "VL": "QLVLTQPPSVSGAPGQRVIISCTGSSSNIGAGYDVHWYQQLPGTAPRLLIYGSTNRPSGVPDRFSGSKSGTSASLAITGLQAEDEADYYCQSYDNSLSAHYVFGTGTKVTVL", "notes": "Converted from scFv to IgG (pNATVH/pNATVL, HEK293E)"}, "B5": {"name": "human anti-DLK1 monoclonal antibody 20D3 (antibody, V domains shown)", "VH": "QMQLVQSGGGLVQPGRSLRLSCAASGFTFDDYAMHWVRQAPGKGLEWVSGISWNSGSIGYADSVKGRFTISRDNAKNSLYLQMNSLRAEDTAVYYCTKGPGLATGKVYFNSWGQGTQVTVSS", "VL": "DIQMTQSPSSVSASVGDRVTITCRASQRISSWLAWYQQKPGRAPKLLIHSASTLHNGVPSRFSGSASGTDFTLTISSLQPEDFAIYYCQQGHSFPYTFGQGTKLDIK", "notes": "Converted from scFv to IgG"}, "B6": {"name": "human anti-DLK1 monoclonal antibody 27F7 (antibody, V domains shown)", "VH": "QMQLVESGGGLVKPGGSLTLSCDATGFNFGSYYMNWVRQAPGKGLEWLAHISSTGRTIYYADSVKGRFTISRDNAKSSLDLQMNSLRAEDTAVYYCARDQGYPFGMDVWGHGTTVTVSS", "VL": "QLVLTQPSSVSGAPGQRVTISCTGSSSNIGAGYDVDWYQQLPGTAPKLLIYGNTNRPSGVPDRFSGSKSGTSASLAITGLQAEDDSDYYCQSYDSSLSAWVFGGGTKLTVL", "notes": "Converted from scFv to IgG"}, "B7": {"name": "human anti-DLK1 monoclonal antibody 35E2 (antibody, V domains shown)", "VH": "QVQLVESGGGVVQPGRSLRLSCAASGFTFSSYAMHWVRQAPGKGLEWVAVIYSGGSTYYADSVKGRFTISRDNSKNTLYLQMNSLRAEDTAVYYCAREGSYDVMTYTRIGGYFDYWGQGALVTVSS", "VL": "DIQMTQSPSSVSASVGDRVTITCRASQGISDWVAWYQQKPGKAPKLLIYAASSLQSGVPSRFSGSGSGTEFSLTISNLQPEDFATYYCQQANSFPLTFGPGTKVEIK", "notes": "Converted from scFv to IgG"}}, "key": {"[1]": {"target": "T1, human DLK1 present on the cell surface (DLK1-overexpressing MIA PaCa-2 cells); SK-N-F1 cells endogenously … (human, UniProt P80370 24-383)", "T1 construct": "whole, on cells; also called MIA PaCa-2 cells overexpressing DLK1", "T1 sequence (looked up)": "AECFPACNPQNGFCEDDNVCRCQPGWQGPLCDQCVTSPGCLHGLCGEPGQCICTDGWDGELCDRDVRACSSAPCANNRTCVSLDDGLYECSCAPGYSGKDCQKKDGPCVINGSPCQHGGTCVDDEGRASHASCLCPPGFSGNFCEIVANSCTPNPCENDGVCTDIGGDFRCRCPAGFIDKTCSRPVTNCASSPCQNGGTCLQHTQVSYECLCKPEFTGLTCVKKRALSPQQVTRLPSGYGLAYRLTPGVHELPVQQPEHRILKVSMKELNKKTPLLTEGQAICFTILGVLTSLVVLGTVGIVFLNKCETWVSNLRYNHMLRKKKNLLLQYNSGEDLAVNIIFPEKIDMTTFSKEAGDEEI", "assay": "FACS, DLK1-overexpressing MIA PaCa-2 cells, antibody titrated 1/3 from 10 µg/ml"}, "[2]": {"target": "T2, DLK1-hFc fusion protein (extracellular region of human DLK1 fused with human Fc) (human, UniProt P80370 24-303)", "T2 construct": "The ELISA text says 'DLK1 protein'/'antigen DLK1' coated at 100 ng/well; also called hDLK1; DLK1 antigen", "T2 sequence": "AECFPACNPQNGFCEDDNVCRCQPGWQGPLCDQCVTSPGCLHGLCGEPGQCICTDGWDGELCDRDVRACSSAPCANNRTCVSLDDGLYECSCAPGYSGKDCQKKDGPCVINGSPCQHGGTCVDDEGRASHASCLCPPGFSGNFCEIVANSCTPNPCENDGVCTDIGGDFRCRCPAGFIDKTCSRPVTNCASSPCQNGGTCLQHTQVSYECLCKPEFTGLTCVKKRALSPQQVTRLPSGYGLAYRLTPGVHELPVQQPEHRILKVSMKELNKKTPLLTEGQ", "assay": "ELISA, coated DLK1 antigen, IgG titrated 100 nM to 0.046 nM, GraphPad Prism fit"}, "[3]": {"target": "T1, human DLK1 present on the cell surface …", "assay": "cell-based or functional assay"}}, "note": "Positions count from the first letter of the chain named."}
{"binder": "B1", "values": [{"measurement": "EC50", "setting": "[1]", "result": 0.131, "unit": "µg/mL"}, {"measurement": "Kd", "setting": "[2]", "result": 520, "unit": "pM"}, {"measurement": "EC50 of cytotoxicity of 18A5-Fab ZAP in DLK1-overexpressing MIA PaCa-2 cells", "setting": "[3]", "result": 0.002, "unit": "pM"}]}
{"binder": "B2", "values": [{"measurement": "EC50", "setting": "[1]", "result": 0.12, "unit": "µg/mL"}, {"measurement": "Kd", "setting": "[2]", "result": 47, "unit": "pM"}, {"measurement": "EC50 of cytotoxicity of 18A5_LS_1A10-Fab ZAP in DLK1-overexpressing MIA PaCa-2 cells", "setting": "[3]", "result": 0.0011, "unit": "pM"}]}
{"binder": "B3", "values": [{"measurement": "EC50", "setting": "[1]", "result": 0.0903, "unit": "µg/mL"}, {"measurement": "Kd", "setting": "[2]", "result": 13, "unit": "pM"}, {"measurement": "EC50 of cytotoxicity of 18A5_AM_1A12-Fab ZAP in DLK1-overexpressing MIA PaCa-2 cells", "setting": "[3]", "result": 0.0026, "unit": "pM"}]}
{"binder": "B4", "values": [{"measurement": "Kd", "setting": "[2]", "result": 7190, "unit": "pM"}]}
{"binder": "B5", "values": [{"measurement": "Kd", "setting": "[2]", "result": 54000, "unit": "pM"}]}
{"binder": "B6", "values": [{"measurement": "Kd", "setting": "[2]", "result": 220, "unit": "pM"}]}
{"binder": "B7", "values": [{"measurement": "Kd", "setting": "[2]", "result": 330, "unit": "pM"}]}
